# Data taken from patent US20110142789A1 (University of Pennsylvania, published 2011).
# Biological target: T1, endogenous human Ataxin-2 (human, UniProt Q99700 1-1313, limits assumed)
# T1 construct: Endogenous protein in HEK293T lysate, detected by immunoblot with α-Ataxin-2 (BD); also called ATXN2
# Test: co-immunoprecipitation from HEK293T lysate (α-GFP IP, α-Ataxin-2 blot)
# Excerpt: CFP-Pbp1 and TDP-43-YFP show accumulations in yeast that frequently co-localize (arrows). b) Co-immunoprecipitation assays in yeast. Yeast cells co-transformed with untagged TDP-43 and either CFP-Pbp1 or CFP alone were lysed and subjected to immunoprecipitation with an α-GFP antibody (also detects CFP), then subjected to immunoblotting with a-TDP43. […] HEK293T cells were transfected with expression constructs encoding YFP, TDP-43-YFP, TDP-43ΔNLS-YFP (NLS mutant that localizes the protein to the cytoplasm), TDP-43_{ΔNLS,5F}_{_{→}}L-YFP (NLS mutant coupled with RNA-binding mutant, (5 point mutations in the RRM domains that abolish RNA-binding)), or TDP-435F_{_{→}}L-YFP (RNA-binding mutant). Protein was immunoprecipitated with a-GFP antibody (detects YFP), and then subjected to immunoblotting with a-Ataxin-2 to detect endogenous Ataxin-2. […] The interaction between Ataxin-2 and TDP-43 seen normally (left lanes) was abolished upon RNase treatment (right lanes). e) HEK293T cells transfected with YFP-tagged WT and mutant TDP-43 constructs then immunostained for endogenous Ataxin-2. Normally, Ataxin-2 is localized to the cytoplasm forming occasional cytoplasmic accumulations. TDP-43 localized to the nucleus in a diffuse pattern. […]
# T1 sequence (Q99700 whole entry): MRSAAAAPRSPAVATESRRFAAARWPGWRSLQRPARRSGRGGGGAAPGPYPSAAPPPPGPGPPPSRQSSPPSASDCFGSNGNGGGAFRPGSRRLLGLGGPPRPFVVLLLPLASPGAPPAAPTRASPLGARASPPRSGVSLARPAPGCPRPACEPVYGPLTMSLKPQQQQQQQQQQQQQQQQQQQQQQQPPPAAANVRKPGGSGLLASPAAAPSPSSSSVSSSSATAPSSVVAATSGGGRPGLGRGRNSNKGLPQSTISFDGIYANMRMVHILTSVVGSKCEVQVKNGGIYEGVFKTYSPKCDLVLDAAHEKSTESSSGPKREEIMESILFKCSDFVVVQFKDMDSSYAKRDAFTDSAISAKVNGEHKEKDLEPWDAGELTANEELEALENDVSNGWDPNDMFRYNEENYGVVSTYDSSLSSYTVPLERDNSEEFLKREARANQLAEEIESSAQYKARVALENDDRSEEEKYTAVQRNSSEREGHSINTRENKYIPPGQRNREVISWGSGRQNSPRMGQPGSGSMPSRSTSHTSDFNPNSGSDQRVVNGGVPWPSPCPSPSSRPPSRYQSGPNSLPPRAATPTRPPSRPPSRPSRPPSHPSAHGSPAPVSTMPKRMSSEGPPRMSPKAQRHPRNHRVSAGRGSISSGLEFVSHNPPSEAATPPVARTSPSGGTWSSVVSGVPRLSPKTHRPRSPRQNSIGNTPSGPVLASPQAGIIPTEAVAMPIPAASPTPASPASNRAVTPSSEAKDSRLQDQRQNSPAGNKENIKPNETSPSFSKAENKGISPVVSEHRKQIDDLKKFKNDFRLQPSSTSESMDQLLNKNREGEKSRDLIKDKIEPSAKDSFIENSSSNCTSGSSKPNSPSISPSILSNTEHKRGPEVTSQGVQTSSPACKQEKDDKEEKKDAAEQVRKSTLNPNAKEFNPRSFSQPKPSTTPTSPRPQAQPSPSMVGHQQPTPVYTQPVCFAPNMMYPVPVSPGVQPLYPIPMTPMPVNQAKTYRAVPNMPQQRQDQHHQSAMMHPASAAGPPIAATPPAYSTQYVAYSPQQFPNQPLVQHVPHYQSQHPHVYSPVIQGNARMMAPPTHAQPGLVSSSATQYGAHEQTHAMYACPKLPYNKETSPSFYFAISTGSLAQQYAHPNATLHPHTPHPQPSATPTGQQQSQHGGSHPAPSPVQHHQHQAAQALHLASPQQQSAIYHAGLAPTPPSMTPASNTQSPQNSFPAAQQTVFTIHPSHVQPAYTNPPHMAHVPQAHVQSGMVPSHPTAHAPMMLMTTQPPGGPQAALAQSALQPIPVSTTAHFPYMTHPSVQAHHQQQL
binder,measurement,value
"TDP-43ΔNLS,5F→L-YFP (other, human, UniProt Q13148 1-414, looked up, also called ΔNLS-TDP-43-(5F→L)-YFP; not shown: C-terminal YFP tag) MSEYIRVTEDENDEPIEIPSEDDGTVLLSTVTAQFPGACGLRYRNPVSQCMRGVRLVEGILHAPDAGWGNLVYVVNYPKDNAAAMDETDASSAVKVKRAVQKTSDLIVLGLPWKTTEQDLKEYFSTFGEVLMVQVKKDLKTGHSKGLGLVRFTEYETQVKVMSQRHMIDGRWCDCKLPNSKQSQDEPLRSRKVLVGRCTEDMTEDELREFFSQYGDVMDVFIPKPFRALALVTFADDQIAQSLCGEDLIIKGISVHISNAEPKHNSNRQLERSGRFGGNPGGFGNQGGFGNSRGGGAGLGNNQGSNMGGGMNFGAFSINPAMMAAAQAALQSSWGMMGMLASQQNQSGPSGNNQNQGNMQREPNQAFGSGNNSYSGSNSGAAIGWGSASNAGSGSGFNGGFGSSMDSKSSGWGM",binding result,no binding
